Experimental data taken from article PMC6142219.

Target: CBS–CP12 protein (IPF_2164) of Microcystis aeruginosa PCC 7806 (Microcystis aeruginosa PCC 7806)
Test: SEC

CBS–CP12 protein (IPF_2164) of Microcystis aeruginosa PCC 7806 (natural protein)
stoichiometry N: 6
